The values below come from patent US20070148180A1, “Peptide-immunoglobulin-conjugate” (priority 2005, published 2007).

No end group written: not given here.

The test system of assay [1] is pseudotyped NL-Bal viruses. Conditions: pseudotyped NL-Bal virus, single-cycle, JC53-BL cells.
The target in assay [2] is biotinylated HR1 peptide Biotin-T-2324 (HIV-1 gp41 HR1) (Human immunodeficiency virus type 1 group M subtype B, UniProt P04582, G556A). Description: Binding affinity of HR2 containing polypeptides to HR1 by Surface Plasmon Resonance (BIAcore 3000). Conditions: SPR, 25° C., immobilized HR1 peptide Biotin-T-2324, 1:1 Langmuir model. (In general: Surface plasmon resonance follows binding to a sensor surface in real time, without labels.)

The subject of another assay is live NL-Bal viruses. The assay is classed as cell-based, HIV-1. The note with it: live NL-Bal virus, JC53-BL cells, luciferase activity.

Broadly, the Kd is the constant that tells how readily two partners part at equilibrium. Lower therefore signals tighter binding.

Procedure for HIV-1 JR-CSF virus: Human PBMC were isolated from buffy-coats (obtained from the Stanford Blood Center) by a Ficoll-Paque (Amersham, Piscataway, N.J., USA) density gradient centrifugation according to manufacturer's protocol. Briefly, blood was transferred from the buffy coats in 50 ml conical tubes and diluted with sterile Dulbecco's phosphate buffered saline (Invitrogen/Gibco) to a final volume of 50 ml. Twenty-five ml of the diluted blood was transferred to two 50 ml conical tubes, carefully underlayerd with 12.5 ml of Ficoll-Paque Plus (Amersham Biosciences) and centrifuged at room temperature for 20 min. at 450×g without braking. The white cell layer was carefully transferred to a new 50 ml conical tube and washed twice with PBS. To remove remaining red blood cells, cells were incubated for 5 min. at room temperature with ACK lysis buffer (Biosource) and washed one more time with PBS. PBMC were counted and incubated at a concentration of 2-4×10^6 cells/ml in RPMI1640 containing 10% FCS (Invitrogen/Gibco), 1% penicillin/streptomycin, 2 mM L-glutamine, 1 mM sodium-pyruvate, and 2 μg/ml Phytohemagglutinin (Invitrogen) for 24 h at 37° C. […] Virus production was measured at the end of infection by using p24 ELISA (HIV-1 p24 ELISA #NEK050B) using the sigmoid dose-response model with one binding site in Microsoft Excel Fit (version 3.0.5 Build12; equation 205; Microsoft).

Regarding “4970/4802: anti-IGF-1R IgG1: wt light chain 4802, heavy chain 4970 with T-651 conjugated C-terminally via linker SEQ ID NO: 11 (GGGGSGGGGSGGGGSGGNMTWMEWDREINNYTSLIHSLIEESQNQQEKNEQELL; also: fused C-terminally to heavy chain of anti-IGF-1R IgG1)”, the “Antiviral activity % Inhibition at 20 μg/mL” value in assay [1] stood at 15%. In assay [2], this molecule showed a KA of 9.11e+10 M⁻¹, a Kd of 11 pM, a ka of 1.01e+06 M⁻¹ s⁻¹ and a kd of 1.11e-05 s⁻¹. In addition, in the assay on live NL-Bal viruses, the “Antiviral activity % Inhibition at 20 μg/mL” value is 20%.
In the case of “4972/4802: anti-IGF-1R IgG1: wt light chain 4802, heavy chain 4972 with T-2635 conjugated C-terminally via linker SEQ ID NO: 11 (GGGGSGGGGSGGGGSGGTTWEAWDRAIAEYAARIEALIRAAQEQQEKNEAALREL; also: fused C-terminally to heavy chain of anti-IGF-1R IgG1)”, the “Antiviral activity % Inhibition at 20 μg/mL” value in assay [1] was determined as 27%. Besides, in assay [2], the KA was determined as 1.01e+10 M⁻¹; the affinity, expressed as Kd, was 98.7 pM; the ka turned out to be 786000 M⁻¹ s⁻¹; the kd came to 7.76e-05 s⁻¹. Also, the “Antiviral activity % Inhibition at 20 μg/mL” value in the assay on live NL-Bal viruses is recorded as 43%.
For “4976/4818: anti-IGF-1R IgG1: light chain 4976 with T-651 N-terminal (including variable domain), wt heavy chain 4818 (QIWNNMTWMEWDREINNYTSLIHSLIEESQNQQEKNEQELLGGGGSGGGGSGGGGSGAS; also: fused N-terminally to light chain of anti-IGF-1R IgG1)”, the “Antiviral activity % Inhibition at 20 μg/mL” value in assay [1] amounted to 17%. In assay [2], this molecule yielded a KA of 2.63e+10 M⁻¹, a Kd of 38 pM, a ka of 923000 M⁻¹ s⁻¹ and a kd of 3.51e-05 s⁻¹. The “Antiviral activity % Inhibition at 20 μg/mL” value in the assay on live NL-Bal viruses was found to be 38%.
Consider `CC[C@H](C)[C@H](NC(=O)[C@H](C)NC(=O)[C@H](CCCNC(=N)N)NC(=O)[C@H](CC(=O)O)NC(=O)[C@H](Cc1c[nH]c2ccccc12)NC(=O)[C@H](C)NC(=O)[C@H](CCC(=O)O)NC(=O)[C@H](Cc1c[nH]c2ccccc12)NC(=O)[C@@H](NC(=O)[C@@H](NC(C)=O)[C@@H](C)O)[C@@H](C)O)C(=O)N[C@@H](C)C(=O)N[C@@H](CCC(=O)O)C(=O)N[C@@H](Cc1ccc(O)cc1)C(=O)N[C@@H](C)C(=O)N[C@@H](C)C(=O)N[C@@H](CCCNC(=N)N)C(=O)N[C@H](C(=O)N[C@@H](CCC(=O)O)C(=O)N[C@@H](C)C(=O)N[C@@H](CC(C)C)C(=O)N[C@H](C(=O)N[C@@H](CCCNC(=N)N)C(=O)N[C@@H](C)C(=O)N[C@@H](C)C(=O)N[C@@H](CCC(N)=O)C(=O)N[C@@H](CCC(=O)O)C(=O)N[C@@H](CCC(N)=O)C(=O)N[C@@H](CCC(N)=O)C(=O)N[C@@H](CCC(=O)O)C(=O)N[C@@H](CCCCN)C(=O)N[C@@H](CC(N)=O)C(=O)N[C@@H](CCC(=O)O)C(=O)N[C@@H](C)C(=O)N[C@@H](C)C(=O)N[C@@H](CC(C)C)C(=O)N[C@@H](CCCNC(=N)N)C(=O)N[C@@H](CCC(=O)O)C(=O)N[C@@H](CC(C)C)C(N)=O)[C@@H](C)CC)[C@@H](C)CC` [Compound T-2635], for which the “Antiviral activity IC50” value with HIV-1 JR-CSF virus was 0.004 µg/mL.
As to enfuvirtide, the “Antiviral activity IC50” value in assay [1] (3 day incubation, luciferase activity) was 0.38 µg/mL.
